The values that follow come from patent US20220127350A1 (NUMAB THERAPEUTICS, published 2022).

For orientation: Kd means the constant that tells how readily two partners part at equilibrium. A word on the koff: it is a measure of how fast the partners let go of each other. In general, kon refers to the rate constant with which the complex forms. In general, IC50 refers to the concentration that gives 50% inhibition.

Assay [1] has as its target T1, human IL-17A (human, UniProt Q16552 24-155).
T1 construct: Recombinant human IL-17A (Peprotech Cat. No. 200-17), disulfide-linked homodimer from E. coli; Biotinylated or RPE-labelled in some assays; also called hIL-17A; IL-17A-RPE (labelled)
The assay can be described thus: SPR (Biacore T200), direct setup: IL-17A amine-coupled on CM5, scFv as analyte.
Procedure: (§1) After each analyte injection cycle the CAP sensor chip was regenerated and new antigen was captured. The scFvs were injected as analyte using a dose response multi-cycle kinetic assay with concentrations of the analyte ranging from 0.35 to 90 nM diluted in running buffer. Obtained sensorgrams were fitted using the 1:1 binding model. In addition, the scFvs were analyzed in an alternative SPR assay setup (“direct setup”).

Assay [2] deals with T2, human IL-17E (human, UniProt Q9H293 33-177).
T2 construct: also called IL-25
T2 sequence: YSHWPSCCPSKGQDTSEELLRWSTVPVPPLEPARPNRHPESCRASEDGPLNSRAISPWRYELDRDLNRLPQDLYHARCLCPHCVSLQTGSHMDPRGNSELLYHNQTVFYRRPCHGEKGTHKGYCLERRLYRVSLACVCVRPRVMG
The assay can be described thus: competition ELISA: scFv PRO571 coated, binding of biotinylated IL-17A detected, unlabeled IL-17E titrated as competitor [II) A].
Source text: (§2) For this purpose, the scFvs were coated on a 96-well ELISA plate.

The target of assay [3] is T1, human IL-17A. The assay is described as follows: competitive ELISA: IL-17RA coated, biotinylated IL-17A preincubated with scFv. A general note: An ELISA detects its analyte on a solid surface through an enzyme-linked reagent.
Procedure: Finally, Tetramethylbenzidin solution (KPL, Cat. No. 53-00-00) was added to develop the plate for 5 to 10 minutes and the reaction was stopped with 1 M HCl. The plate was read using a microtiter plate reader (Infinity reader M200 Pro, Tecan) at a wavelength of 450 nm and 570 nm (reference wavelength).
In assay [4] the target is T3, cynomolgus monkey IL-17A (Macaca fascicularis (cynomolgus monkey)).
T3 construct: also called cyno IL-17A; cyno IL17A
The assay is described as follows: SPR (Biacore T200). (In general: SPR reads the build-up and loss of mass on a sensor chip optically.)
Procedure: as §1

The target of assay [5] is T4, human IL-17D (human, UniProt Q8TAD2 16-202, limits assumed).
T4 sequence: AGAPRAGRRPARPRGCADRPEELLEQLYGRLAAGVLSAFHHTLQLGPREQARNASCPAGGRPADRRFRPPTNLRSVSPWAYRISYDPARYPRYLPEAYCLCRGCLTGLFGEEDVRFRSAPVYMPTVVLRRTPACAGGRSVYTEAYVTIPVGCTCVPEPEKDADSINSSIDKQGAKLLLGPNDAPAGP
The assay can be described thus: competition ELISA: scFv PRO571 coated, binding of biotinylated IL-17A detected, unlabeled IL-17D titrated as competitor [II) A].
Source text: as §2

The target of assay [6] is T5, human IL-17F (human, UniProt Q96PD4 31-163).
T5 construct: Peprotech Cat. No. 200-25 in the direct ELISA
T5 sequence: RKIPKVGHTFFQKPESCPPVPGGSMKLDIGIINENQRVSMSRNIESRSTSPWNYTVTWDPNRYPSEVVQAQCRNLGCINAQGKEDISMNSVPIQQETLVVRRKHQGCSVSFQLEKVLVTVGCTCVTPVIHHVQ
The assay can be described thus: competition ELISA: scFv coated, biotinylated IL-17A, unlabeled cytokine titrated.
Source text: as §2

Assay [7] has as its target T6, human IL-17C (human, UniProt Q9P0M4 19-197).
T6 sequence: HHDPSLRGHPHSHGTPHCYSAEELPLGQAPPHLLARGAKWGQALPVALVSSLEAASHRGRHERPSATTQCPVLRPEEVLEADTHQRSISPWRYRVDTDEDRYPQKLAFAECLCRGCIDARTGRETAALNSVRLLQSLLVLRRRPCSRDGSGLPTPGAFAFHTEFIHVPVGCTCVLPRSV
The description is as above.
Source text: as §2

Assay [8] deals with T1, human IL-17A. The assay is described as follows: SPR (Biacore T200), capture setup: biotinylated IL-17A captured, scFv as analyte.
Procedure: as §1
The target of assay [9] is T7, human IL-17B (human, UniProt Q9UHF5 21-180).
T7 sequence: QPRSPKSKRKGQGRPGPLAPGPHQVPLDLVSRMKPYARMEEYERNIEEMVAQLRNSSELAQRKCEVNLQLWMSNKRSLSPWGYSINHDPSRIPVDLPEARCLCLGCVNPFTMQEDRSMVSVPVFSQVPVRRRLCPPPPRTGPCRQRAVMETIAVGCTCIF
The assay is described as follows: competition ELISA: scFv PRO571 coated, binding of biotinylated IL-17A detected, unlabeled IL-17B titrated as competitor [II) B].
Source text: as §2

Assay [10] concerns the target T3, cynomolgus monkey IL-17A. The assay is described as follows: SPR (Biacore T200), cynomolgus IL-17A, scFv as analyte.
Procedure: as §1
For assay [11], the target named is T1, human IL-17A. The assay can be described thus: cell-based or functional assay.
Assay [12] addresses T7, human IL-17B. The assay can be described thus: competition ELISA: scFv PRO592 coated, binding of biotinylated IL-17A detected, unlabeled IL-17B titrated as competitor [II) D].
Source text: as §2
Assay [13] deals with T2, human IL-17E. The assay can be described thus: competition ELISA: scFv PRO592 coated, binding of biotinylated IL-17A detected, unlabeled IL-17E titrated as competitor [II) C].
Source text: as §2
Assay [14] deals with T6, human IL-17C. The assay can be described thus: competition ELISA: scFv PRO592 coated, binding of biotinylated IL-17A detected, unlabeled IL-17C titrated as competitor [II) D].
Source text: as §2
Assay [15] deals with T5, human IL-17F. The assay is described as follows: competition ELISA: scFv PRO592 coated, binding of biotinylated IL-17A detected, unlabeled IL-17F titrated as competitor [II) C].
Source text: as §2
Assay [16] has as its target T4, human IL-17D. The assay is described as follows: competition ELISA: scFv PRO592 coated, binding of biotinylated IL-17A detected, unlabeled IL-17D titrated as competitor [II) C].
Source text: as §2
Assay [17] deals with T4, human IL-17D. The assay is described as follows: competition ELISA: scFv A1 coated, binding of biotinylated IL-17A detected, unlabeled IL-17D titrated as competitor [I) A].
Source text: as §2
Assay [18] has as its target T7, human IL-17B. The assay is described as follows: competition ELISA: scFv A1 coated, binding of biotinylated IL-17A detected, unlabeled IL-17B titrated as competitor [I) B].
Source text: as §2
Assay [19] concerns the target T6, human IL-17C. The assay is described as follows: competition ELISA: scFv A1 coated, binding of biotinylated IL-17A detected, unlabeled IL-17C titrated as competitor [I) B].
Source text: as §2
The target of assay [20] is T2, human IL-17E. The assay is described as follows: competition ELISA: scFv A1 coated, binding of biotinylated IL-17A detected, unlabeled IL-17E titrated as competitor [I) A].
Source text: as §2
Assay [21] concerns the target T5, human IL-17F. The assay is described as follows: competition ELISA: scFv A1 coated, binding of biotinylated IL-17A detected, unlabeled IL-17F titrated as competitor [I) A].
Source text: as §2

B1: PRO571 (humanized anti-IL-17A scFv, CDR graft of 27-31-C04) (scFv)
scFv: DIQMTQSPSSLSASVGDRVTITCQASESIYRYLSWYQQKPGKAPKLLIYLASTLTSGVPSRFSGSGSGTDFTLTISSLQPEDFATYYCQSNFGTASTTYYNTFGGGTKLTVLGGGGGSGGGGSGGGGSGGGGSEVQLVESGGGLVQPGGSLRLSCAASGFSFSGFYYMCWVRQAPGKGLEWIGCIDTGDGTTYYASWAKGRFTISRDNSKNTVYLQMNSLRAEDTAVYYCARDAAYGGYAYPAHGMDLWGQGTLVTVSS
notes: VL-linker-VH; also called 27-31-C04-sc01; 27_31_C04_sc01
Turning to B1, the Kd in [1] stood at 0.0403 nM; in [8], 0.119 nM; in assay [10] it was 0.0331 nM. The koff was found to be 4.55e-05 s⁻¹ in assay [1], 0.000144 s⁻¹ in assay [8] and 3.88e-05 s⁻¹ in assay [10]. The kon in assay [1] came out at 1.13e+06 M⁻¹ s⁻¹; in assay [8], 1.21e+06 M⁻¹ s⁻¹; in assay [10], 1.17e+06 M⁻¹ s⁻¹. The binding result was “no binding (tested: about 20000 ng/mL)” in [2]; “no binding (tested: about 500000 ng/mL)” in assay [5]; “no binding (tested: 20000 ng/ml)” in assay [6]; “no binding (tested: 100000 ng/ml)” in assay [7]; “no binding (tested: about 100000 ng/mL)” in [9]. In addition, the IC50 in assay [3] came to 1.8 ng/mL. In addition, the “KD, cyno/KD, human” value in assay [4] was 0.28. Besides, the “IC50 in HT-29 assay, GRO-α secretion” value in [11] was 0.1 ng/mL.

B2: PRO592 (humanized anti-IL-17A scFv, STR graft of 27-31-C04) (scFv)
scFv: DIQMTQSPSSLSASVGDRVTITCQASESIYRYLSWYQQKPGKAPKLLIYLASTLTSGVPSRFSGSGSGTDFTLTISSLQPEDFATYYCQSNFGTASTTYYNTFGGGTKLTVLGGGGGSGGGGSGGGGSGGGGSEVQLVESGGGLVQPGGSLTLSCAASGFSFSGFYYMCWVRQAPGKGLEWIGCIDTGDGTTYYASWAKGRFTISRDNSKNTVYLQMNSLRAEDTAVYYCARDAAYGGYAYPAHGMDLWGPGTLVTVSS
notes: VL-linker-VH; also called 27-31-C04-sc02; 27_31_C04_sc02
With B2, the binding result in assay [12] is on record as “no binding (tested: about 100000 ng/mL)”; in assay [13], “no binding (tested: about 20000 ng/mL)”; in assay [14] it was “no binding (tested: about 100000 ng/mL)”; in assay [15] it was “no binding (tested: about 20000 ng/mL)”; in [16], “no binding (tested: about 500000 ng/mL)”. Besides, the results for the Kd in [1], in assay [8] and in assay [10] were 0.0376 nM, 0.367 nM and 0.16 nM, respectively. Further, the koff in [1] is 4.07e-05 s⁻¹; in assay [8] it was 0.000142 s⁻¹; in [10] it was 5.38e-05 s⁻¹. In addition, the kon came out at 1.08e+06 M⁻¹ s⁻¹ in [1], 387000 M⁻¹ s⁻¹ in assay [8] and 336000 M⁻¹ s⁻¹ in assay [10]. This molecule came in with an IC50 in [3] of 0.9 ng/mL. Further, the “KD, cyno/KD, human” value in [4] was 0.44. In [11], the “IC50 in HT-29 assay, GRO-α secretion” value amounted to 0.13 ng/mL.

B3: A1 (humanized anti-IL-17A scFv, CDR graft of 27-07-G02) (scFv)
scFv: DIQMTQSPSSLSASVGDRVTITCQASQTINYWLAWYQQKPGKAPKLLIYRASTLASGVPSRFSGSGSGTDFTLTISSLQPEDFATYYCQNYYYSTSRSYGFGGGTKLTVLGGGGGSGGGGSGGGGSGGGGSEVQLVESGGGLVQPGGSLRLSCAASGFSFSSDYWMCWVRQAPGKGLEWIGCIYAGDVDDTDYASWARGRFTISRDNSKNTVYLQMNSLRAEDTAVYYCARVDGFDITYFDLWGQGTLVTVSS
notes: VL-linker-VH; also called 27-07-G02-sc01; 27_07_G02_sc01
Consider B3, for which the equilibrium dissociation constant (Kd) in assay [1] came out at 0.139 nM; in assay [8] it was 0.247 nM; in assay [10], 0.905 nM. Besides, the koff in [1] amounted to 0.000102 s⁻¹; in assay [8], 0.000112 s⁻¹; in [10], 0.000261 s⁻¹. The kon in assay [1] came out at 737000 M⁻¹ s⁻¹; in assay [8], 455000 M⁻¹ s⁻¹; in [10], 288000 M⁻¹ s⁻¹. Besides, the binding result in assay [17] is “no binding (tested: about 100000 ng/mL on the axis)”; in assay [18], “no binding (tested: about 100000 ng/mL)”; in assay [19], “no binding (tested: about 100000 ng/mL)”; in assay [20], “no binding (tested: about 20000 ng/mL)”; in assay [21], “no binding (tested: about 20000 ng/mL)”. This molecule also had an IC50 in assay [3] of 2 ng/mL. For the same molecule, the “KD, cyno/KD, human” value in assay [4] stood at 3.66. In assay [11], the “IC50 in HT-29 assay, GRO-α secretion” value turned out to be 0.2 ng/mL.
